# Experiments:
# human serum albumin = target: T1, human serum albumin (human, UniProt P02768 25-609); assay: size exclusion chromatography coupled to static light scattering
# T1 construct: For SEC-MALS purified from CSL Behring 20% solution; also called HSA; SA (human)
# human VEGF-A [1] = target: T2, human VEGF-A (human, UniProt P15692-4 27-191, limits assumed); assay: ELISA; species of VEGF-A not stated
# T2 construct: Recombinant, bought or produced in CHO or Pichia pastoris; also called hVEGF-A
# T2 sequence (P15692 other isoform, or with tags, fused parts or gaps limits assumed): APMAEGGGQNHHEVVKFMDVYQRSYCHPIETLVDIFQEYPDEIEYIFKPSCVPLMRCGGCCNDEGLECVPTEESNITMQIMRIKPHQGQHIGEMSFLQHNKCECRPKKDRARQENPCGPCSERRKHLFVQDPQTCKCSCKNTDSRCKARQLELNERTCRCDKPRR
# human HGF [2] = target: T3, human HGF (human, UniProt P14210 32-728); assay: ELISA; species of HGF not stated
# T3 construct: also called hepatocyte growth factor
# T3 sequence (P14210 32-728 limits assumed): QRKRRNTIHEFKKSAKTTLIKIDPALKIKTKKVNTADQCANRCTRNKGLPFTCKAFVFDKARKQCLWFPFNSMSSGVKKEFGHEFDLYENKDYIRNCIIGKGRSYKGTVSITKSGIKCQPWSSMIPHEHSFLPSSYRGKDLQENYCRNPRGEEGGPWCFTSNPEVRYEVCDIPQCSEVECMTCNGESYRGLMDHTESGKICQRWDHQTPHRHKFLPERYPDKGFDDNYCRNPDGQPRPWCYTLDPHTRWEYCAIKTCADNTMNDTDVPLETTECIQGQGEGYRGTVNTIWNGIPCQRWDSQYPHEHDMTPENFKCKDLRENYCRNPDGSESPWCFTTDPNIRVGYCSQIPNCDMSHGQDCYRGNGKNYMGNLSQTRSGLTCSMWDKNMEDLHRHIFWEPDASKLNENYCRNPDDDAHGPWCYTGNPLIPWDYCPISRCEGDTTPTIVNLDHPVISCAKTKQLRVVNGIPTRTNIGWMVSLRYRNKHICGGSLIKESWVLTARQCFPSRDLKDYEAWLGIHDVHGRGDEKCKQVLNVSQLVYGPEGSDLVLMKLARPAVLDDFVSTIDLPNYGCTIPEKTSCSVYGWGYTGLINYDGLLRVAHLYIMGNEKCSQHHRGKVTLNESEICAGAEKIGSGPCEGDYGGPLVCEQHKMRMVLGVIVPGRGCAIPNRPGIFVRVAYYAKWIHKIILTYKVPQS
# human VEGF-A [3] = target: T2, human VEGF-A; assay: VEGF-A Quantikine competition ELISA; competitor: immobilised anti-VEGF-A monoclonal antibody
# Excerpt: Such assays are well known to the person skilled in the art. For designed ankyrin repeat domains with binding specificity to VEGF-A, a quantitative sandwich enzyme immunoassay technique was used according to the manufacturer (VEGF-A Quantikine kit DVE00, R&D Systems). A monoclonal antibody specific for VEGF-A was pre-coated onto a microplate. VEGF-A standards and mixtures of VEGF-A (20 pM) and Protein #18, #19, or #20 at varying concentrations were applied to the wells and any free VEGF-A present (i.e. not bound to the designed ankyrin repeat domain) is bound by the immobilized antibody. After washing away any unbound substances, an enzyme-linked polyclonal antibody specific for VEGF-A is added to the wells. Following a wash to remove any unbound antibody-enzyme reagent, a substrate solution is added to the wells and color develops in proportion to the amount of VEGF-A bound in the initial step. The color development is stopped and the intensity of the color is measured. […] IC₅₀ values were calculated from such titration curves obtained as described above using Graph Pad Prism software and standard procedures known to the person skilled in the art. For designed ankyrin repeat domains with binding specificity to HGF, a cMet receptor competition assay was performed. For that purpose, 5 nM of human cMet receptor in PBS were immobilized on Maxisorp plates overnight at 4° C. After washing with PBS 0.05% TWEEN 20, the plate was blocked for 2 h with shaking at 300 rpm using PBS containing 0.05% TWEEN 20 and 0.25% Casein at RT. A constant concentration of 5 nM human HGF was pre-incubated for 30 min at RT with a 1000 nM-1 pM of Proteins #23, #26, #28, and #29 (1:4 dilution series each) on a dilution plate in PBS 0.05% TWEEN 20. After washing of the ELISA plate with PBS 0.05% TWEEN, pre-incubated samples were transferred to the ELISA plate and plate was incubated for 2 h at RT with shaking at 300 rpm. After washing with PBS 0.25% TWEEN, 200 ng/ml anti human HGF antibody was added for 1 h at RT with shaking at 300 rpm. […]
# human HGF [4] = target: T3, human HGF; assay: SPR (ProteOn)
# Description: SPR was measured using a ProteOn instrument (BioRad) and measurement was performed according standard procedures known to the person skilled in the art.
# human HGF [5] = target: T3, human HGF; assay: cMet receptor competition ELISA; 5 nM human HGF, immobilised human cMet
# Excerpt: Such assays are well known to the person skilled in the art. For designed ankyrin repeat domains with binding specificity to VEGF-A, a quantitative sandwich enzyme immunoassay technique was used according to the manufacturer (VEGF-A Quantikine kit DVE00, R&D Systems). A monoclonal antibody specific for VEGF-A was pre-coated onto a microplate. VEGF-A standards and mixtures of VEGF-A (20 pM) and Protein #18, #19, or #20 at varying concentrations were applied to the wells and any free VEGF-A present (i.e. not bound to the designed ankyrin repeat domain) is bound by the immobilized antibody. After washing away any unbound substances, an enzyme-linked polyclonal antibody specific for VEGF-A is added to the wells. Following a wash to remove any unbound antibody-enzyme reagent, a substrate solution is added to the wells and color develops in proportion to the amount of VEGF-A bound in the initial step. The color development is stopped and the intensity of the color is measured. […] IC₅₀ values were calculated from such titration curves obtained as described above using Graph Pad Prism software and standard procedures known to the person skilled in the art. For designed ankyrin repeat domains with binding specificity to HGF, a cMet receptor competition assay was performed. For that purpose, 5 nM of human cMet receptor in PBS were immobilized on Maxisorp plates overnight at 4° C. After washing with PBS 0.05% TWEEN 20, the plate was blocked for 2 h with shaking at 300 rpm using PBS containing 0.05% TWEEN 20 and 0.25% Casein at RT. A constant concentration of 5 nM human HGF was pre-incubated for 30 min at RT with a 1000 nM-1 pM of Proteins #23, #26, #28, and #29 (1:4 dilution series each) on a dilution plate in PBS 0.05% TWEEN 20. After washing of the ELISA plate with PBS 0.05% TWEEN, pre-incubated samples were transferred to the ELISA plate and plate was incubated for 2 h at RT with shaking at 300 rpm. After washing with PBS 0.25% TWEEN, 200 ng/ml anti human HGF antibody was added for 1 h at RT with shaking at 300 rpm. After washing with PBS 0.05% TWEEN, 100 ng/ml HRP conjugated polyclonal anti HGF species antibody was added for 30 min at RT with shaking at 300 rpm. Detection was using 1:3 diluted BM blue POD (Roche).
# T1 sequence (P02768 25-609 limits assumed): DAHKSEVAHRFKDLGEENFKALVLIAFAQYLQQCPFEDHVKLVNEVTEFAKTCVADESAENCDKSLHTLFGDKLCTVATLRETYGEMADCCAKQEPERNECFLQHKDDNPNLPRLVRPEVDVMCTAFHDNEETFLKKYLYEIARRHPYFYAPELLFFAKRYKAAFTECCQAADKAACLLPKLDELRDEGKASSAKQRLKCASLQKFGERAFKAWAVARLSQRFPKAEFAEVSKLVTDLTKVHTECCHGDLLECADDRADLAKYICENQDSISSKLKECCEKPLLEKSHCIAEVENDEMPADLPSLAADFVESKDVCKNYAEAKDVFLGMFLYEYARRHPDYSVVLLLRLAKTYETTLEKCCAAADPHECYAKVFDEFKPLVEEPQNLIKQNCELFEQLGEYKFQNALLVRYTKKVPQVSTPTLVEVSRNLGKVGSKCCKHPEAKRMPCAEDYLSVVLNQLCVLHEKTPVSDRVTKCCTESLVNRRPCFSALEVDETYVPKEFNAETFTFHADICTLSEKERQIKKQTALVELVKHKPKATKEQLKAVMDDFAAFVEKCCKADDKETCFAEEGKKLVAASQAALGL
Binder,binding result (human serum albumin),Kd (human HGF [4]) [nM],IC50 (human HGF [5]) [nM],further results
Protein #97 (designed binder) MRGSHHHHHHGSDLGKKLLEAARAGQDDEVRILMANGADVNAKDYFSHTPLHLAARNGHLKIVEVLLKAGADVNAKDFAGKTPLHLAANDGHLEIVEVLLKHGADVNAQDIFGKTPADIAADAGHEDIAEVLQKLGSPTPTPTTPTPTPTTPTPTPTGSRSDLGKKLLEAARAGQDDEVRILLKAGADVNAKDRYGDTPLHLAADAGHLKIVEVLLKAGADVNAEDYFGNTPLHLAASAGHLEIVEVLLKAGADVNAKDDAGNTPLHLAANTGHLKIVEVLLKAGADVNAQDKSGKTPADLAADAGHEDIAEVLQKLGSPTPTPTTPTPTPTTPTPTPTGSRSDLDKKLLEAARAGQDDEVRILLKAGADVNAKDYLGWTPLHLAAHEGHLEIVEVLLKAGADVNAKDVSGYTPLHLAAADGHLEIVEVLLKAGADVNAKDNTGWTPLHLSADLGHLEIVEVLLKAGADVNAQDKFGKTAFDISIDNGNEDLAEILQKLGSPTPTPTTPTPTPTTPTPTPTGSRSDLGKKLLEAARAGQDDEVRILMANGADVNAKDYFSHTPLHLAARNGHLKIVEVLLKAGADVNAKDFAGKTPLHLAANDGHLEIVEVLLKHGADVNAQDIFGKTPADIAADAGHEDIAEVLQKLN,binds,,,
Protein #102 (designed binder) MRGSHHHHHHGSDLGKKLLEAARAGQDDEVRELLKAGADVNAKDYFSHTPLHLAARNGHLKIVEVLLKAGADVNAKDFAGKTPLHLAANDGHLEIVEVLLKAGADVNAQDIFGKTPADIAADAGHEDIAEVLQKAAGSPTPTPTTPTPTPTTPTPTPTGSDLGKKLLEAARAGQDDEVRILLKAGADVNAKDRYGDTPLHLAADIGHLEIVEVLLKAGADVNAEDYFGNTPLHLAASYGHLEIVEVLLKAGADVNAKDDYGNTPLHLAANTGHLEIVEVLLKAGADVNAQDKSGKTPADLAADAGHEDIAEVLQKAAGSPTPTPTTPTPTPTTPTPTPTGSDLDKKLLEAARAGQDDEVRILLKAGADVNAKDSTGWTPLHLAAPWGHPEIVEVLLKAGADVNAKDFQGWTPLHLAAAVGHLEIVEVLLKAGADVNAQDKSGKTPADLAADAGHEDIAEVLQKAAGSPTPTPTTPTPTPTTPTPTPTGSDLGKKLLEAARAGQDDEVRELLKAGADVNAKDYFSHTPLHLAARNGHLKIVEVLLKAGADVNAKDFAGKTPLHLAANDGHLEIVEVLLKAGADVNAQDIFGKTPADIAADAGHEDIAEVLQKAA,binds,,,
Protein #109 (designed binder) MRGSHHHHHHGSDLGKKLLEAARAGQDDEVRILMANGADVNAKDYFSHTPLHLAARNGHLKIVEVLLKAGADVNAKDFAGKTPLHLAANDGHLEIVEVLLKHGADVNAQDIFGKTPADIAADAGHEDIAEVLQKLGSPTPTPTTPTPTPTTPTPTPTGSRSDLGKKLLEAARAGQDDEVRILMANGADVNAKDYFSHTPLHLAARNGHLKIVEVLLKAGADVNAKDFAGKTPLHLAANDGHLEIVEVLLKHGADVNAQDIFGKTPADIAADAGHEDIAEVLQKLGSPTPTPTTPTPTPTTPTPTPTGSRSDLGKKLLEAARAGQDDEVRILMANGADVNAKDKDGYTPLHLAAREGHLEIVEVLLKAGADVNAKDKDGYTPLHLAAREGHLEIVEVLLKAGADVNAQDKFGKTAFDISIDNGNEDLAEILQKLGSPTPTPTTPTPTPTTPTPTPTGSRSDLGKKLLEAARAGQDDEVRILMANGADVNAKDKDGYTPLHLAAREGHLEIVEVLLKAGADVNAKDKDGYTPLHLAAREGHLEIVEVLLKAGADVNAQDKFGKTAFDISIDNGNEDLAEILQKLN,binds,,,
Protein #110 (designed binder) MRGSHHHHHHGSDLGKKLLEAARAGQDDEVRELLKAGADVNAKDYFSHTPLHLAARNGHLKIVEVLLKAGADVNAKDFAGKTPLHLAANEGHLEIVEVLLKAGADVNAQDIFGKTPADIAADAGHEDIAEVLQKAAGSPTPTPTTPTPTPTTPTPTPTGSDLGKKLLEAARAGQDDEVRELLKAGADVNAKDKSGNTPLHLAARFGHLEIVEFLLKAGADVNAKDETGKTPLHLAAIWGHLEIVEVLLKAGADVNAKDLYGRTPLHLAAKLRHLEIVEVLLKAGADVNAQDKFGKTAFDISIDNGNEDLAEILQKAAGSPTPTPTTPTPTPTTPTPTPTGSDLDKKLLEAARAGQDDEVRELLKAGADVNALDQIGWTPLHLAANYGHLEIVEVLLKAGADVNAKDLWGQTPLHLAAWKGHLEIVEVLLKAGADVNAKDTDGLTPLHLAAIRGHLEIVEVLLKAGADVNAQDKSGKTPADLAADAGHEDIAEVLQKAAGSPTPTPTTPTPTPTTPTPTPTGSDLGKKLLEAARAGQDDEVRELLKAGADVNAKDYFSHTPLHLAARNGHLKIVEVLLKAGADVNAKDFAGKTPLHLAANEGHLEIVEVLLKAGADVNAQDIFGKTPADIAADAGHEDIAEVLQKAA,binds,,,
Protein #71 (designed binder) MRGSHHHHHHGSDLGKKLLEAARAGQDDEVRILMANGADVNAKDYFSHTPLHLAARNGHLKIVEVLLKAGADVNAKDFAGKTPLHLAANDGHLEIVEVLLKHGADVNAQDIFGKTPADIAADAGHEDIAEVLQKLGGGGSGGGGSGGGGSGGGGSRSDLDKKLLEAARAGQDDEVRILLKAGADVNAKDYLGWTPLHLAAHEGHLEIVEVLLKAGADVNAKDVSGYTPLHLAAADGHLEIVEVLLKAGADVNAKDNTGWTPLHLSADLGHLEIVEVLLKAGADVNAQDKFGKTAFDISIDNGNEDLAEILQKLGGGGSGGGGSGGGGSGGGGSRSDLGKKLLEAARAGQDDEVRILLKAGADVNAKDRYGDTPLHLAADAGHLKIVEVLLKAGADVNAEDYFGNTPLHLAASAGHLEIVEVLLKAGADVNAKDDAGNTPLHLAANTGHLKIVEVLLKAGADVNAQDKSGKTPADLAADAGHEDIAEVLQKLN,,,,EC50 (human VEGF-A [1]): 0.205 nM; EC50 (human HGF [2]): 0.179 nM
Protein #20 (designed binder) MRGSHHHHHHGSDLDKKLLEAARAGQDDEVRILLKAGADVNAKDSTGWTPLHLAAPWGHPEIVEVLLKAGADVNAKDFQGWTPLHLAAAVGHLEIVEVLLKAGADVNAQDKSGKTPADLAADAGHEDIAEVLQKAA,,,,IC50 (human VEGF-A [3]): 0.004 nM
Protein #18 (designed binder) MRGSHHHHHHGSDLDKKLLEAARAGQDDEVRILLKAGADVNAKDSTGWTPLHLAAPWGHPEIVEVLLKAGADVNAKDFQGWTPLHLAAAAGHLEIVEVLLKAGADVNAQDKSGKTPADLAADAGHEDIAEVLQKAA,,,,IC50 (human VEGF-A [3]): 0.013 nM
Protein #19 (designed binder) MRGSHHHHHHGSDLGKKLLEAARAGQDDEVRILLKAGADVNAKDSTGWTPLHLAAPWGHPEIVEVLLKAGADVNAKDFQGWTPLHLAAAAGHLEIVEVLLKAGADVNAQDKSGKTPADLAADAGHEDIAEVLQKAA,,,,IC50 (human VEGF-A [3]): 0.013 nM
Protein #23 (designed binder) MRGSHHHHHHGSDLGKKLLEAARAGQDDEVRILMANGADVNAKDRFGDTPLHLAADIGHLKIVEVLLKHGADVNAEDWFGNTPLHLAASMGHLEIVEVLLKYGADVNAMDDYGNTPLHLAANTGHLEIVEVLLKHGADVNAQDKFGKTAFDISIDNGNEDLAEILQKAA,,0.016,0.915,
Protein #26 (designed binder) MRGSHHHHHHGSDLGKKLLEAARAGQDDEVRILLKAGADVNAKDRYGDTPLHLAADIGHLEIVEVLLKAGADVNAEDYFGNTPLHLAASYGHLEIVEVLLKAGADVNAKDDYGNTPLHLAANTGHLEIVEVLLKAGADVNAQDKSGKTPADLAADAGHEDIAEVLQKAA,,0.051,0.623,
Protein #28 (designed binder) MRGSHHHHHHGSDLGMKLLEAARAGQDDEVRILMANGADVNAHDTWGLTPLHLAAFHGHQEIVEVLLKHGADVNAQDFYGKTPLHLAALRGHLEIVEVLLKYGADVNAQDQFGKTAFDISIDNGNEDLAEILQKAA,,0.026,0.955,
Protein #29 (designed binder) MRGSHHHHHHGSDLGKKLLEAARAGQDDEVRILMANGADVNAKYEDGLTPLHLAAFYGHLEIVEVLLKHGADVNATDAWGHTPLHLAAYYGHLEIVEVLLKYGADVNTHDKEGMTALHLAALTGHLEIVEVLLKNGADVNAQDKFGKTAFDISIDNGNEDLAEILQKAA,,0.025,1.36,

# From US20160289285A1 (Molecular Partners, published 2016)
